The text below walks through data of publication PMC5847377 (Cell, 2017).

The target in one assay is ANG variant H13A (human, UniProt P03950 25-147, H13A). The assay can be described thus: ELISA.
Assay [1] deals with Angiogenin (ANG), human recombinant (human, UniProt P03950 25-147). The assay is described as follows: equilibrium dialysis.
Sequence of Angiogenin (ANG), human recombinant (P03950 25-147): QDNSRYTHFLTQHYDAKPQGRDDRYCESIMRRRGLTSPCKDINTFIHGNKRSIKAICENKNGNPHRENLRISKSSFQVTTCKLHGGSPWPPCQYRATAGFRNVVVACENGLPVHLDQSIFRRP

Sequence of ANG variant H13A (P03950 25-147 H37A): as the sequence (P03950 25-147) above, with H13A counted along it

As for TSSEYDSILVEINKR [PLXNB2 peptide hplb2-15-06], the binding result (in the assay with ANG variant H13A; in assay [1]) was “binds” throughout.
